Consider ten molecules from patent US20230348616A1.

Positions count from the first letter of the chain named.

What all share (assay): flow cytometry on peptide-pulsed T2 cells, scFv 100 nM
On the technique in general: A flow cytometer gives signals particle by particle.

Assay [1] concerns the target 4A.
The target of assay [2] is 7F.
The target of assay [3] is 1F.
Assay [4] addresses 5A.
The target of assay [5] is 2M.
The target of assay [6] is 6L.
Assay [7] concerns the target 3A.

B1: NYA-1143 (scFv)
scFv: GEVQLVESGGGVVQPGRSLTPSCSASGFSIRSYDIHWVRLAPGKGLEWVATISYDGSQKYFADSVKGRFTIFRDESENMVYLQMSGLRVEDTAVYHCARGSSGHYEAFDIWGQGTMVTVSSGGGGSGGGGSGGGGSQSVLTQPPSVSAAPGQKVTISCSGSSSNIGNWYVSWYQQLPGTAPKLLIYDNNKRPSGIPDRFSGSKSGTSATLGITGLQTGDEADYYCGTWDSSLSAPWVFGGGTKVTVLGAAAGAGGDYKDDDDKGAAAHHHHHH
As to B1, the standardized gMFI in assay [1] was found to be 5.91; in assay [2], 4.26; in assay [3], 1.77.

B2: NYA-1154 (scFv)
scFv: B1 scFv with I35M, L40Q, G103N, W168N, Q175R, T227A
As for B2, the standardized gMFI was 1.12 in assay [4] and 3.98 in assay [3].

B3: NYA-2023 (scFv)
scFv: B1 scFv with L40Q
B3 displayed a standardized gMFI in assay [4] of 1.21.

B4: NYA-2035 (scFv)
scFv: B1 scFv with Y169K
For B4, the standardized gMFI in assay [1] was determined as 2.16; in assay [4], 2.27.

B5: NYA-1163 (scFv)
scFv: B1 scFv with W168N
For B5, the standardized gMFI in assay [5] turned out to be 1.85; in assay [2], 1.11; in assay [6], 1.74; in assay [7], 1.7.

B6: NYA-2143 (scFv)
scFv: B1 scFv with Q175R
Regarding B6, the standardized gMFI in assay [4] was determined as 4.3; in assay [2] it was 5.26.

B7: NYA-2048 (scFv)
scFv: GQVQLVESGGGVVQPGRSLRLSCAASGFSIRSYDMHWVRQAPGKGLEWVATISYDGSQKYYADSVKGRFTISRDNSKNTLYLQMSSLRAEDTAVYHCARGSSGHYEAFDIWGQGTLVTVSSGGGGSGGGGSGGGGSQSVLTQPPSASGTPGQRVTISCSGSSSNIGNWYVSWYQQLPGTAPKLLIYDNNKRPSGVPDRFSGSKSGTSASLAISGLQSEDEADYYCGTWDSSLSAPWVFGGGTKLTVLGAAAGAGGDYKDDDDKGAAAHHHHHH
The molecule B7 had a standardized gMFI in assay [2] of 1.46.

B8: NYA-2045 (scFv)
scFv: B7 scFv with Q2E, V12L, R17G, M35I, Q40L, N75E, S85N
Take B8: the figures for the standardized gMFI in assay [1] and in assay [4] were 1.17 and 0.94, respectively.

B9: NYA-2047 (scFv)
scFv: GQVQLVESGGGVVQPGRSLRLSCAASGFSIRSYDMHWVRQAPGKGLEWVATISYDGSQKYYADSVKGRFTISRDNSKNTLYLQMSSLRAEDTAVYHCARGSSGHYEAFDIWGQGTLVTVSSGGGGSGGGGSGGGGSQSVLTQPPSVSAAPGQKVTISCSGSSSNIGNWYVSWYQQLPGTAPKLLIYDNNKRPSGIPDRFSGSKSGTSATLGITGLQTGDEADYYCGTWDSSLSAPWVFGGGTKVTVLGAAAGAGGDYKDDDDKGAAAHHHHHH
On to B9, for which the standardized gMFI in assay [4] is 1.03; in assay [2], 3.11.

B10: NYA-2044 (scFv)
scFv: B9 scFv with Q2E, V12L, R17G, M35I, Q40L, N75E, S85N
As to B10, the standardized gMFI in assay [4] was 2.2.
